Test results as given in the supplement of paper PMC6757056.
± gives the standard deviation of the averaged measurements.

B1: library; a variant is named by its letters at N, in order (parent)
chain: GCUGUCACCGGUGUAUUACCCUAGUGGUCGACCGGUCUGAUGAGUCUNNNNNNAGACGAAACAGC

What was measured:
hypoxanthine [1] = variants of: B1; assay: normalized RNA/DNA level with ligand (relative to sTRSVctl = 100) (log10 (% of sTRSVctl)); ligand: hypoxanthine (xanthine aptamer); higher = less ribozyme self-cleavage, higher mRNA level; conditions: ligand concentration (+) RNA-Seq: 5 mM, HEK293T, reporter: mCherry (pCS4076), ligand present: yes
Method in brief: (§1)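 HEK293T cells received ligand, where used, 1 h before being transfected with 4 µg per 6-well well of library plasmids encoding reporter-linked ribozyme switches. After 72 h, RNA was extracted with EDTA and sequenced. RNA level was derived from RNA reads per DNA read, normalized to a spiked-in non-cleaving sequence or the top sequences, then scaled and log-transformed. Values were ×100 then log10, the top set was 25 sequences, and the minimum was 100 DNA reads.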

hypoxanthine [2] = variants of: B1; assay: normalized RNA/DNA level without ligand (relative to sTRSVctl = 100) (log10 (% of sTRSVctl)); ligand: hypoxanthine (xanthine aptamer); higher = less ribozyme self-cleavage, higher mRNA level; conditions: HEK293T, reporter: mCherry (pCS4076), ligand present: no
Method in brief: as §1

Row | Variant | normalized RNA/DNA level with ligand (log10) (hypoxanthine [1]) | normalized RNA/DNA level without ligand (log10) (hypoxanthine [2])
1 | GCUGUCACCGGUGUAUUACCCUAGUGGUCGACCGGUCUGAUGAGUCUACCAGGAGACGAAACAGC [ACCAGG] | 1.832 ± 0.015 | 1.44 ± 0.064
2 | GCUGUCACCGGUGUAUUACCCUAGUGGUCGACCGGUCUGAUGAGUCUACCCGAAGACGAAACAGC [ACCCGA] | 1.95 ± 0.028 | 1.755 ± 0.0068
3 | GCUGUCACCGGUGUAUUACCCUAGUGGUCGACCGGUCUGAUGAGUCUUCCAGGAGACGAAACAGC [UCCAGG] | 1.9095 ± 0.00051 | 1.8002 ± 0.0018
4 | GCUGUCACCGGUGUAUUACCCUAGUGGUCGACCGGUCUGAUGAGUCUCCCAGUAGACGAAACAGC [CCCAGU] | 1.934 ± 0.0021 | 1.89 ± 0.032
5 | GCUGUCACCGGUGUAUUACCCUAGUGGUCGACCGGUCUGAUGAGUCUGCCCCUAGACGAAACAGC [GCCCCU] | 1.93 ± 0.029 | 1.933 ± 0.0028
6 | GCUGUCACCGGUGUAUUACCCUAGUGGUCGACCGGUCUGAUGAGUCUGCCCCAAGACGAAACAGC [GCCCCA] | 1.965 ± 0.0094 | 1.85 ± 0.05
7 | GCUGUCACCGGUGUAUUACCCUAGUGGUCGACCGGUCUGAUGAGUCUGCCCCCAGACGAAACAGC [GCCCCC] | 1.95 ± 0.033 | 1.83 ± 0.078
8 | GCUGUCACCGGUGUAUUACCCUAGUGGUCGACCGGUCUGAUGAGUCUGCCCCGAGACGAAACAGC [GCCCCG] | 1.92 ± 0.05 | 1.52 ± 0.021
9 | GCUGUCACCGGUGUAUUACCCUAGUGGUCGACCGGUCUGAUGAGUCUUCCCGAAGACGAAACAGC [UCCCGA] | 1.956 ± 0.0054 | 1.8 ± 0.031
10 | GCUGUCACCGGUGUAUUACCCUAGUGGUCGACCGGUCUGAUGAGUCUCCCCAGAGACGAAACAGC [CCCCAG] | 1.84 ± 0.062 | 1.77 ± 0.047
11 | GCUGUCACCGGUGUAUUACCCUAGUGGUCGACCGGUCUGAUGAGUCUCCCCACAGACGAAACAGC [CCCCAC] | 1.987 ± 0.018 | 1.9 ± 0.073
12 | GCUGUCACCGGUGUAUUACCCUAGUGGUCGACCGGUCUGAUGAGUCUCCCCAUAGACGAAACAGC [CCCCAU] | 1.93 ± 0.036 | 1.87 ± 0.046
13 | GCUGUCACCGGUGUAUUACCCUAGUGGUCGACCGGUCUGAUGAGUCUUCCCAUAGACGAAACAGC [UCCCAU] | 1.93 ± 0.032 | 1.829 ± 0.0082
14 | GCUGUCACCGGUGUAUUACCCUAGUGGUCGACCGGUCUGAUGAGUCUUCCCAAAGACGAAACAGC [UCCCAA] | 1.918 ± 0.011 | 1.765 ± 0.0033
15 | GCUGUCACCGGUGUAUUACCCUAGUGGUCGACCGGUCUGAUGAGUCUCCCAUAAGACGAAACAGC [CCCAUA] | 1.9 ± 0.06 | 1.89 ± 0.11
16 | GCUGUCACCGGUGUAUUACCCUAGUGGUCGACCGGUCUGAUGAGUCUCCCAUGAGACGAAACAGC [CCCAUG] | 1.933 ± 0.0045 | 1.81 ± 0.048
17 | GCUGUCACCGGUGUAUUACCCUAGUGGUCGACCGGUCUGAUGAGUCUCCCAUUAGACGAAACAGC [CCCAUU] | 2 ± 0.03 | 1.927 ± 0.0023
18 | GCUGUCACCGGUGUAUUACCCUAGUGGUCGACCGGUCUGAUGAGUCUGCCAUUAGACGAAACAGC [GCCAUU] | 1.96 ± 0.013 | 1.918 ± 0.01
19 | GCUGUCACCGGUGUAUUACCCUAGUGGUCGACCGGUCUGAUGAGUCUCCCCCAAGACGAAACAGC [CCCCCA] | 1.94 ± 0.029 | 1.889 ± 0.0072
20 | GCUGUCACCGGUGUAUUACCCUAGUGGUCGACCGGUCUGAUGAGUCUCCCCCUAGACGAAACAGC [CCCCCU] | 2.01 ± 0.038 | 1.976 ± 0.014
21 | GCUGUCACCGGUGUAUUACCCUAGUGGUCGACCGGUCUGAUGAGUCUCCCCCGAGACGAAACAGC [CCCCCG] | 1.92 ± 0.064 | 1.93 ± 0.044
